The record followed here is publication PMC9351484.

“And” between values parts separate entries of the source, which are not always exact repeats. Equal entries are not always repeated.

The target in data set [1] is TRF2/Rap1 complex (human) (UniProt Q9NYB0). Put plainly: co-sedimentation + other: mass photometry.
The target of data set [2] is TRF1 (human) (UniProt P54274). Put plainly: native MS.
Target sequence in this assay (P54274 whole entry): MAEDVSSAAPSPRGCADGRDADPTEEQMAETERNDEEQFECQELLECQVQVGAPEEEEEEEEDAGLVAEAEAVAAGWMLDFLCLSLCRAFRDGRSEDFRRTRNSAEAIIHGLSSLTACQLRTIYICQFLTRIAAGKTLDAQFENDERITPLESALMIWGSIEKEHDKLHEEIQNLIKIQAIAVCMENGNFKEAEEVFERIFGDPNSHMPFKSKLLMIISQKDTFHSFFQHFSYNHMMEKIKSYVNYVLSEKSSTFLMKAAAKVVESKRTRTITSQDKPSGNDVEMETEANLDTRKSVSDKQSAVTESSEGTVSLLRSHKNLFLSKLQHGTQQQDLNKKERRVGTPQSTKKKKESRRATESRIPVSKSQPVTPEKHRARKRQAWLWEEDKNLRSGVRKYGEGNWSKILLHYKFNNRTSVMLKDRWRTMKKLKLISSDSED
Data set [3] deals with TRF1 (human) (UniProt P54274). Put plainly: mass photometry.
Another data set addresses POT1 (human) (UniProt Q9NUX5). Put plainly: native MS.
The target of a further data set is TPP1 (human). Put plainly: native MS.
TPP1 (human), sequence (Q96AP0 whole entry): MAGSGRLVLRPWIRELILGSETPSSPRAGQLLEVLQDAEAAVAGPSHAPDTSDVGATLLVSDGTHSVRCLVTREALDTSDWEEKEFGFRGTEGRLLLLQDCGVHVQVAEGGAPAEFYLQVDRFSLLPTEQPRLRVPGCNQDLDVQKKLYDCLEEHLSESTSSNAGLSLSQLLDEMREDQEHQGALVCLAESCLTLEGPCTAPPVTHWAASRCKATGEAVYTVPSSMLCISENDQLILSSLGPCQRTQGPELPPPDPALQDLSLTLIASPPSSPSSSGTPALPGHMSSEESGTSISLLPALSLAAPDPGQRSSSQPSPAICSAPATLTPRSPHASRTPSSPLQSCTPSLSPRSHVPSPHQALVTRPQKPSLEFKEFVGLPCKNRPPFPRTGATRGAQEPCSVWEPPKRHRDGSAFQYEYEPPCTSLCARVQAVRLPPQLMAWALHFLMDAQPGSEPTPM
Data set [4] has as its target TRF2/His6MBP-Rap1 complex (human) (UniProt Q9NYB0). Put plainly: pull-down + other: mass photometry.
Another data set has as its target POT1;TPP1;GFP-TIN2 (human;human;human, UniProt Q9NUX5;Q96AP0;Q9BSI4-2 1-634;1-458;1-352, ||). Put plainly: negative-stain EM.
The target in data set [5] is T1, POT1;TPP1N (human;human, UniProt Q9NUX5;Q96AP0 1-634;1-251, |). The data set can be described thus: negative-stain EM.
T1 sequence (Q9NUX5 whole entry, chain 1 of 2): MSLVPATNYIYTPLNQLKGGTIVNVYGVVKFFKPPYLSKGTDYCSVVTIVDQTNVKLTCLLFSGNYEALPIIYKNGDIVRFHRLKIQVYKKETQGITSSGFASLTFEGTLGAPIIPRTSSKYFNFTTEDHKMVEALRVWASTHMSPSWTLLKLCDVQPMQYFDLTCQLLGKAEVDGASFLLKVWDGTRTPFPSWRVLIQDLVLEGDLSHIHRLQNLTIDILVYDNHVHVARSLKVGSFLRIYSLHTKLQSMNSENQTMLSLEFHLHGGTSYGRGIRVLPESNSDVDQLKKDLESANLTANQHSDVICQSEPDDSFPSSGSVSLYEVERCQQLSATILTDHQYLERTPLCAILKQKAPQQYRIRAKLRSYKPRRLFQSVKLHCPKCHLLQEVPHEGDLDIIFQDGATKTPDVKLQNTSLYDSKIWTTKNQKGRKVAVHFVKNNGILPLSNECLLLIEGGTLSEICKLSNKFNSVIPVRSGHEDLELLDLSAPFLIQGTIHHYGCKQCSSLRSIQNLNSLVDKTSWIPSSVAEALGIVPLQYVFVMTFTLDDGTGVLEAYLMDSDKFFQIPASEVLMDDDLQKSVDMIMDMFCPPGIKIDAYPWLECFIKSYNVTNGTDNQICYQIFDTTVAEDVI
T1 sequence (Q96AP0 1-251, chain 2 of 2): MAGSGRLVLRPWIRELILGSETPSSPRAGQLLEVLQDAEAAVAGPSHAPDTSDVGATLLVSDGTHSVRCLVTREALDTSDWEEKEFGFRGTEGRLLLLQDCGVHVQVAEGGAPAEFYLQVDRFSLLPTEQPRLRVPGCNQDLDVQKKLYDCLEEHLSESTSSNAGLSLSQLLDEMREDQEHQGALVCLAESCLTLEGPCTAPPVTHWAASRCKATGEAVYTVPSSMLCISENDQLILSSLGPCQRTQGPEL
The target of data set [6] is T1, POT1;TPP1N. Put plainly: size-exclusion chromatography and negative-stain EM. (In gel filtration, larger molecules generally elute earlier.)

TRF2/Rap1 complex (human), sequence (Q9NYB0 whole entry, looked up, one chain of several): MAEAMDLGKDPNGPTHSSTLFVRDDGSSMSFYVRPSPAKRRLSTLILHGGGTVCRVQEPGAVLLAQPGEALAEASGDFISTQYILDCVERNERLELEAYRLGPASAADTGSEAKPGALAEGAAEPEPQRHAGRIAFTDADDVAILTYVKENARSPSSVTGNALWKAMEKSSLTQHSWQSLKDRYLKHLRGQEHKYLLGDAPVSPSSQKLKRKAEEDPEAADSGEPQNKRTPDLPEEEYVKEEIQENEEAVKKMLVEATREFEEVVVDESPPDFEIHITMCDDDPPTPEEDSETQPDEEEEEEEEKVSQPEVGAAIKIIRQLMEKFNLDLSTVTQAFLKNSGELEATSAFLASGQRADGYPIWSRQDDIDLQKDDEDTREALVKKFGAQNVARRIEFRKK
POT1/TPP1/GFP-TIN2 complex, sequence (Q9NUX5 whole entry, looked up, one chain of several): as the sequence (Q9NUX5 whole entry, chain 1 of 2) above
GFP-TIN2 (natural protein), sequence (Q9BSI4 2-451): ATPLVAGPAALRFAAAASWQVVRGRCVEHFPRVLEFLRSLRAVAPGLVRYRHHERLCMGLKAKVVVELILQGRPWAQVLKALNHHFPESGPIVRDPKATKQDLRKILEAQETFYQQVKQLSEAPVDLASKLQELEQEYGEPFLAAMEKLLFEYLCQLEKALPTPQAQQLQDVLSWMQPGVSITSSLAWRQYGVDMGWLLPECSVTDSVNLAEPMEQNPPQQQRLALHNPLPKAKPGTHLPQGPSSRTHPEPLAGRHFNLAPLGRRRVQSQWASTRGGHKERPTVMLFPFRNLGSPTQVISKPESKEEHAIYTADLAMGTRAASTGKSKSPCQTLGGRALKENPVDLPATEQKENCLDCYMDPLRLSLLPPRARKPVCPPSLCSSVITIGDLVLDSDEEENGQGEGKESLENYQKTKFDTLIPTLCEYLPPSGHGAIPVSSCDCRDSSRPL
TRF2/His6MBP-Rap1 complex (human), sequence (Q9NYB0 whole entry, looked up, one chain of several): as the sequence (Q9NYB0 whole entry, looked up, one chain of several) above
POT1/TPP1/GFP-TIN2/TRF1 complex, sequence (P54274 whole entry, looked up): as the sequence (P54274 whole entry) above
POT1/TPP1/GFP-TIN2/TRF1 complex, sequence (Q9NUX5 whole entry, looked up): as the sequence (Q9NUX5 whole entry, chain 1 of 2) above
TRF1/GFP-TIN2 complex, sequence (P54274 whole entry): as the sequence (P54274 whole entry) above
TRF1/GFP-TIN2 complex, sequence (Q9BSI4 1-352): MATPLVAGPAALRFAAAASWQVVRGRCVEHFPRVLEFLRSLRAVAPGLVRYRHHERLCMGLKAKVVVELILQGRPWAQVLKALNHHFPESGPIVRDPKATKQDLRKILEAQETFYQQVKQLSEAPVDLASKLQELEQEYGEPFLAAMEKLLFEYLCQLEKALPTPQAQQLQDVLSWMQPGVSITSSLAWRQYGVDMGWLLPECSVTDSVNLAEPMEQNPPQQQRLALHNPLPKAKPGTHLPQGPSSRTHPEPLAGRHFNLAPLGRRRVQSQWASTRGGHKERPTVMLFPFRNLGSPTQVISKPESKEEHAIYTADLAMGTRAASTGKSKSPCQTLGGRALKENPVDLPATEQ
TRF1, sequence (P54274 2-439): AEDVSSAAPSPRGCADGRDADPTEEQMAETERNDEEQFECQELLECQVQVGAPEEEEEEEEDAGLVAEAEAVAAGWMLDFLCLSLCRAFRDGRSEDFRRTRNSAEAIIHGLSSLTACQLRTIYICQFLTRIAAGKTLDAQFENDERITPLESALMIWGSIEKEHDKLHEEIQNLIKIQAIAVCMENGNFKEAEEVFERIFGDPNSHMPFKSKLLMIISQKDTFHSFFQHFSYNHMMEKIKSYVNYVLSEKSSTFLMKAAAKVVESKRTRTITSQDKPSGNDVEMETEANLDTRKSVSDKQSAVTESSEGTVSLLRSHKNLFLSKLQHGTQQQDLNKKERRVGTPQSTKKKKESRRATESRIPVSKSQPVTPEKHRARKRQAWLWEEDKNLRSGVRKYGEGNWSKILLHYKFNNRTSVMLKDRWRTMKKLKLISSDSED
TPP1 (natural protein), sequence (Q96AP0 whole entry): as the sequence (Q96AP0 whole entry) above
POT1;TPP1;GFP-TIN2, sequence (Q9NUX5 whole entry, chain 1 of 3): as the sequence (Q9NUX5 whole entry, chain 1 of 2) above
POT1;TPP1;GFP-TIN2, sequence (Q96AP0 whole entry, chain 2 of 3): as the sequence (Q96AP0 whole entry) above
POT1;TPP1;GFP-TIN2, sequence (Q9BSI4 1-352, chain 3 of 3): as the sequence (Q9BSI4 1-352) above
POT1 (human), sequence (Q9NUX5 whole entry): as the sequence (Q9NUX5 whole entry, chain 1 of 2) above

With “TRF1/GFP-TIN2 complex (from UniProt P54274;Q9BSI4)”, in data set [1], the stoichiometry N ((TRF1/GFP-TIN2)2 per (TRF2/Rap1)2) was 1. Consider “POT1/TPP1/GFP-TIN2 complex (from UniProt Q9NUX5 1-634)”, for which the stoichiometry N (POT1/TPP1/GFP-TIN2 per TRF1 dimer) is 1 and 2 with TRF1 (human) [2]; 1 and 2 in the data set with TRF1 (human) [3]. The stoichiometry N (POT1/TPP1/TIN2 per (TRF2/Rap1)2) in [1] is 1 and 2. In the case of TPP1 (natural protein), in the data set with POT1 (human), the stoichiometry N (TPP1 per POT1) is 1.

In turn, GFP-TIN2 (natural protein) displayed a stoichiometry N (TIN2 per TPP1) with TPP1 (human) of 1. Besides, the stoichiometry N (TIN2 per TRF1 dimer) with TRF1 (human) [3] stood at 2. What is called stoichiometry N is the number of molecules, sites or subunits per partner or assembly. Consider “TRF1 (from UniProt P54274 1-439) (natural protein)”, for which the stoichiometry N with TRF1 (human) [3] turned out to be 2. Turning to “POT1/TPP1/GFP-TIN2/TRF1 complex (from UniProt Q9NUX5;P54274)”, in [4], the stoichiometry N amounted to 1. Turning to GGTTAGGGTTAGGGTTAGGGTTAG (ssDNA) [5'-biotin-(GGTTAG)4], the binding result with POT1;TPP1;GFP-TIN2 and with POT1;TPP1N [5] was “binds” each time. As for GGTTAGGGTTAG (ssDNA) [5'-biotin-(GGTTAG)2], the binding result with POT1;TPP1N [6] is “binds”.
